T1: human BCMA on cells (CHOK1-hBCMA; H929 endogenous BCMA) (human, UniProt Q02223 1-184)
T1 construct: Cell-surface BCMA in FACS; also called mammalian expressed BCMA; native antigen
T1 sequence: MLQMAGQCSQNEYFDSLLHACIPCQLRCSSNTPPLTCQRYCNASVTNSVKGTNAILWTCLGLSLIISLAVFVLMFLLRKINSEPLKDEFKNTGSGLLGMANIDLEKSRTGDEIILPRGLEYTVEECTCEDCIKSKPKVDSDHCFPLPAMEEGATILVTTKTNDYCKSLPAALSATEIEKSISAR

T2: Recombinant Human BCMA (human, UniProt Q02223 1-54)
T2 construct: also called hBCMA; recombinant BCMA
T2 sequence: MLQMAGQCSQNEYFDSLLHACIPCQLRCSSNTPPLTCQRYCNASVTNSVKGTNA

T3: human BCMA-Fc protein (human, UniProt Q02223 1-54)
T3 construct: Coated antigen of the DACE
T3 sequence: T2 sequence

B1: 5A6(NA)xAB41 (bispecific antibody, human IgG1, lambda, N297A)
heavy: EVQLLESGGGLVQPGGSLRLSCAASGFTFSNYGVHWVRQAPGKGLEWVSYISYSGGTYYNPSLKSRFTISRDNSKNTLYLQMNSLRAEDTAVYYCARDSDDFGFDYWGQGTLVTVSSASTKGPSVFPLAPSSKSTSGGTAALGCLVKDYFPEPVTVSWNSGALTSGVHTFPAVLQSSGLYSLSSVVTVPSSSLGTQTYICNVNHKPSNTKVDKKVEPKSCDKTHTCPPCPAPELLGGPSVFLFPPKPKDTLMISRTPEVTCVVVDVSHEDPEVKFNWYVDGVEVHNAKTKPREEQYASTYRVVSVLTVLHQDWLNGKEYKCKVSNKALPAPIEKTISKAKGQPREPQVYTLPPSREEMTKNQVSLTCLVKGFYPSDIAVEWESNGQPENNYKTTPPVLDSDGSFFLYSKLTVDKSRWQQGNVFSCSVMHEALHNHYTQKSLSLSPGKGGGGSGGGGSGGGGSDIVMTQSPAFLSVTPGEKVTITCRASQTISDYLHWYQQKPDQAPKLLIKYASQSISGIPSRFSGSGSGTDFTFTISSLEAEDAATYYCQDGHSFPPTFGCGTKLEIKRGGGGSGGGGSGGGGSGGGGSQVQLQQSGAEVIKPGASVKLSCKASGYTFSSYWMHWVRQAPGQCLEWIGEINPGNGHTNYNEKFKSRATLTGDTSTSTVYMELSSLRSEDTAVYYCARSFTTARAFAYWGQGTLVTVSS
light: QSVLTQPPSASGTPGQRVTISCQGDSLRSYYVNWYQQLPGTAPKLLIYDHSKRPTGVPDRFSGSKSGTSASLAISGLRSEDEADYYCQSYDSSTVVFGGGTKLTVLGQPKAAPSVTLFPPSSEELQANKATLVCLISDFYPGAVTVAWKADSSPVKAGVETTTPSKQSNNKYAASSYLSLTPEQWKSHRSYSCQVTHEGSTVEKTVAPAECS
notes: IgG1 N297A-scFv (VL-(G4S)4-VH)
B2: 5A6(NA)x41B01 (bispecific antibody, human IgG1, lambda, N297A)
heavy: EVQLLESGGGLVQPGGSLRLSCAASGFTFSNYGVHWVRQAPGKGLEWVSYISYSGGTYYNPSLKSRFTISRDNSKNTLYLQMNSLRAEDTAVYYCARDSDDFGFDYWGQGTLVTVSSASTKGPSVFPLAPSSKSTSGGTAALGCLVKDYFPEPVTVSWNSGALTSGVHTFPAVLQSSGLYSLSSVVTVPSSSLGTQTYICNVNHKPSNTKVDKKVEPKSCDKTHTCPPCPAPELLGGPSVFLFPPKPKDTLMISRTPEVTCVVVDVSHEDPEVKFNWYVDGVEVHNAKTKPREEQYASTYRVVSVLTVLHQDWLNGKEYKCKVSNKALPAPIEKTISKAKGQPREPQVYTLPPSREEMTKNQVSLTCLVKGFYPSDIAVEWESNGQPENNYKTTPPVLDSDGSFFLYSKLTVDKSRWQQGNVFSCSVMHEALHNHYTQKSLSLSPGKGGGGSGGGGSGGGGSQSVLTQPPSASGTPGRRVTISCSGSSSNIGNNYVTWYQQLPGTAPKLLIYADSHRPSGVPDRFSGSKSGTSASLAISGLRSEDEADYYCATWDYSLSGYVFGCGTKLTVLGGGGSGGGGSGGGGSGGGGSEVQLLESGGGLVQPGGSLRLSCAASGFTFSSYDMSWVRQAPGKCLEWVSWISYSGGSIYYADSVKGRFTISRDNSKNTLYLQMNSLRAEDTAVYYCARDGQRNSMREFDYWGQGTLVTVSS
light: B1 light
notes: IgG1 N297A-scFv; also called 5A6(NA) x41B01 (1A10)
B3: 5A6(NA)x41B02 (bispecific antibody, human IgG1, lambda, N297A)
heavy: not shown
light: B1 light
notes: IgG1 N297A-scFv (VL-(G4S)4-VH); also called 5A6(NA) x41B02 (1A12)
B4: 5B5(NA)x41B02 (bispecific antibody, human IgG1, kappa, N297A)
heavy: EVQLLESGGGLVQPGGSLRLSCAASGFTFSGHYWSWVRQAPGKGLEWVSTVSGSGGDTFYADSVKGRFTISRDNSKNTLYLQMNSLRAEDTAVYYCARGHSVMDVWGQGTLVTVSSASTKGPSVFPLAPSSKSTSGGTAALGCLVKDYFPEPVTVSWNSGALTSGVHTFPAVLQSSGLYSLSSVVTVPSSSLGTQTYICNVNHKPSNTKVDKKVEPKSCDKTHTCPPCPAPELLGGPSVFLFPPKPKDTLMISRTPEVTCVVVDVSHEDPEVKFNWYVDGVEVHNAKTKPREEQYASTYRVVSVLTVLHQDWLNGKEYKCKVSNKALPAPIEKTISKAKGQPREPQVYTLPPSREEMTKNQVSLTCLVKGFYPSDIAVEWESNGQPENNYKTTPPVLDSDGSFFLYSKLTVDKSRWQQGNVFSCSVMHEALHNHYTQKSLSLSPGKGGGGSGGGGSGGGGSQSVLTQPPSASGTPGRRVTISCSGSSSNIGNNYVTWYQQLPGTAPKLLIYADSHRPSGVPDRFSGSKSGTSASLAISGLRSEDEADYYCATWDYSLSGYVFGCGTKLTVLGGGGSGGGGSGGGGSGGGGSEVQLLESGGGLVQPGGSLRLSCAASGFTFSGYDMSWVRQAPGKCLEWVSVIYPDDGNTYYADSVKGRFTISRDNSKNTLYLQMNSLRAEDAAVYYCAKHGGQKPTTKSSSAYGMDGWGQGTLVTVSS
light: EIVLTQSPGTLSLSPGERATLSCRASQGIDSYVAWYQQKPGQAPRLLIYDASLRATGIPDRFSGSGSGTDFTLTISRLEPEDFAVYYCQQYNSWPITFGQGTKLEIKRTVAAPSVFIFPPSDEQLKSGTASVVCLLNNFYPREAKVQWKVDNALQSGNSQESVTEQDSKDSTYSLSSTLTLSKADYEKHKVYACEVTHQGLSSPVTKSFNRGEC
notes: IgG1 N297A-scFv (VL-(G4S)4-VH); also called 5B5(NA) x41B02 (1A12)
B5: 5B5(NA)xAB41 (bispecific antibody, human IgG1, kappa, N297A)
heavy: not shown
light: B4 light
notes: as for B1
B6: 5D5(NA)x41B02 (bispecific antibody, human IgG1, kappa, N297A)
heavy: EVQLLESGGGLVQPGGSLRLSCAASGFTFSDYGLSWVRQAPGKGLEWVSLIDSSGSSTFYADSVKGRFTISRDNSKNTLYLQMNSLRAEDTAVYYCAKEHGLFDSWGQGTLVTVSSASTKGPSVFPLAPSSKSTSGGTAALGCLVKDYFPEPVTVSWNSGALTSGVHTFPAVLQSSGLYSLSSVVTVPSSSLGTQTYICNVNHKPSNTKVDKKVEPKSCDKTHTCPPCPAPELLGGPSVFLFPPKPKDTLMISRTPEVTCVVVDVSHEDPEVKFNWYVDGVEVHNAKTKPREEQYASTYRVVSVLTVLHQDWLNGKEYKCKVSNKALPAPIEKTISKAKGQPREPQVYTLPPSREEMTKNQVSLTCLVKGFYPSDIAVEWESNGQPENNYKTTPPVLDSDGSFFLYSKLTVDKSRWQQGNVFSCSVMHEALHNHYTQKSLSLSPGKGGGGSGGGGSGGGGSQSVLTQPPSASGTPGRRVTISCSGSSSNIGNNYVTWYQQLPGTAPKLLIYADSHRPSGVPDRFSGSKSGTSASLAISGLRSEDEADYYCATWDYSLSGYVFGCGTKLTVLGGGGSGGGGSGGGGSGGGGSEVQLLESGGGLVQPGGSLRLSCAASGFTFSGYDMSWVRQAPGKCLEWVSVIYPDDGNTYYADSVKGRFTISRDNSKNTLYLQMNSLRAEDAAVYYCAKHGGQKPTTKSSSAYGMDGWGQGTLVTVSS
light: B4 light with R24K, G28D, S31D, Y32D, V33I, A34N, Y91S, N92L, S93R, W94T
notes: IgG1 N297A-scFv (VL-(G4S)4-VH); also called 5D5(NA) x41B02 (1A12)
B7: 5D5(NA)x41B01 (bispecific antibody, human IgG1, kappa, N297A)
heavy: not shown
light: B4 light with R24K, G28D, S31D, Y32D, V33I, A34N, Y91S, N92L, S93R, W94T
notes: IgG1 N297A-scFv; also called 5D5(NA) x41B01 (1A10)
B8: 5B5(NA)x41B01 (bispecific antibody, human IgG1, kappa, N297A)
heavy: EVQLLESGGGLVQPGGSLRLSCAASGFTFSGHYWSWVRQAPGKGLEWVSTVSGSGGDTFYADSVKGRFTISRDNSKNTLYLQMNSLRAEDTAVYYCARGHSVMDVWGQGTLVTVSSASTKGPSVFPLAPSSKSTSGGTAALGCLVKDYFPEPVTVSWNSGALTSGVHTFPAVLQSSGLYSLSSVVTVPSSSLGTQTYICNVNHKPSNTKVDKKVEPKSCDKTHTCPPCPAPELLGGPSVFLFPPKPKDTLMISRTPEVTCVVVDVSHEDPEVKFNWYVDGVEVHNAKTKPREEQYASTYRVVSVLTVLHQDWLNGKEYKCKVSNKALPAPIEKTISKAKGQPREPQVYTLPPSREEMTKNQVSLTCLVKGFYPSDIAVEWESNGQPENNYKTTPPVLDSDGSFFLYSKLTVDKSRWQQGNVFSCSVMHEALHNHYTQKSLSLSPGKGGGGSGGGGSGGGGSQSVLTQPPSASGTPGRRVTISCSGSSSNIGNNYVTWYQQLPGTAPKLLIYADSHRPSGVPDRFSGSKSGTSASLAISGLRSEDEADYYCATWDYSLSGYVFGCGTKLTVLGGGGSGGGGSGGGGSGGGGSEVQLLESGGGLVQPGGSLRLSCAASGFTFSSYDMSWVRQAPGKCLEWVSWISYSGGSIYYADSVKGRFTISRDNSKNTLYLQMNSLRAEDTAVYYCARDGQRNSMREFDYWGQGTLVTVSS
light: B4 light
notes: IgG1 N297A-scFv; also called 5B5(NA) x41B01 (1A10)
B9: 5D5(NA)xAB41 (bispecific antibody, human IgG1, kappa, N297A)
heavy: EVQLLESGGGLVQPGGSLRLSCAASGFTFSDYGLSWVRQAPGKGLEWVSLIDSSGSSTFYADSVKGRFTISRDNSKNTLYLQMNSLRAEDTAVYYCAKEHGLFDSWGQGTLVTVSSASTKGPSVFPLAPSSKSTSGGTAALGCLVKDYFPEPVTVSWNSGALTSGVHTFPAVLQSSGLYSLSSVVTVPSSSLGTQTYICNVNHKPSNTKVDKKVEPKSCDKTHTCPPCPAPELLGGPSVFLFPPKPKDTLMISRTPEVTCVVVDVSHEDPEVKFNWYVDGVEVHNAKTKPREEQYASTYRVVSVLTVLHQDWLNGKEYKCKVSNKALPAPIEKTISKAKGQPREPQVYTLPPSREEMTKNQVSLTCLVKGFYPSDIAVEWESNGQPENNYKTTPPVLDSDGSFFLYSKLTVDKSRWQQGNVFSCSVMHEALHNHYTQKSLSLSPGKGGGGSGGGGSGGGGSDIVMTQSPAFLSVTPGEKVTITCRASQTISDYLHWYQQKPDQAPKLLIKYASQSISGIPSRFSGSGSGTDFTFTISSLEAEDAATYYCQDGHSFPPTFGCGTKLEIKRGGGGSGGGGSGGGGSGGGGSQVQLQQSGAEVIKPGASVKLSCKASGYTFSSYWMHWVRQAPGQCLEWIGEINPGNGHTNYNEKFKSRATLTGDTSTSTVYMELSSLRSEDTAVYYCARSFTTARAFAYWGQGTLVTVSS
light: B4 light with R24K, G28D, S31D, Y32D, V33I, A34N, Y91S, N92L, S93R, W94T
notes: as for B1
B10: 5A6(NA)x41B01 M12 (bispecific antibody, human IgG1, lambda, N297A)
heavy: not shown
light: B1 light
notes: also called 5A6(NA)x41B01 M12:WT; 5A6WT(NA)x41B01 M12
B11: 5D5(NA)x41B01 M12 (bispecific antibody, human IgG1, kappa, N297A)
heavy: not shown
light: B4 light with R24K, G28D, S31D, Y32D, V33I, A34N, Y91S, N92L, S93R, W94T
notes: also called 5D5(NA)x41B01 M12:WT; 5D5WT(NA)x41B01 M12
B12: 5D5M4(NA)x41B01 M12 (bispecific antibody, human IgG1, kappa, N297A)
heavy: not shown
light: B4 light with R24K, G28D, S31D, Y32A, V33I, A34N, Y91S, N92L, S93R, W94T
notes: IgG1 N297A-(GS)9-scFv
B13: 41B01 (anti-4-1BB monoclonal antibody) (antibody, V domains shown)
VH: EVQLLESGGGLVQPGGSLRLSCAASGFTFSSYDMSWVRQAPGKGLEWVSWISYSGGSIYYADSVKGRFTISRDNSKNTLYLQMNSLRAEDTAVYYCARDGQRNSMREFDYWGQGTLVTVSS
VL: QSVLTQPPSASGTPGRRVTISCSGSSSNIGNNYVTWYQQLPGTAPKLLIYADSHRPSGVPDRFSGSKSGTSASLAISGLRSEDEADYYCATWDYSLSGYVFGGGTKLTVL
notes: Tested as a human IgG type antibody (detected with anti-human IgG); also called 1A10
B14: 41B02 (anti-4-1BB monoclonal antibody) (antibody, V domains shown)
VH: EVQLLESGGGLVQPGGSLRLSCAASGFTFSGYDMSWVRQAPGKGLEWVSVIYPDDGNTYYADSVKGRFTISRDNSKNTLYLQMNSLRAEDAAVYYCAKHGGQKPTTKSSSAYGMDGWGQGTLVTVSS
VL: B13 VL
notes: Tested as a human IgG type antibody; also called 1A12

Numbering of substitutions follows the chain as printed. Names and notes keep the numbering of the source.

In general, Kd refers to the concentration at which binding is half-saturated. As usually defined, the koff is a measure of how fast the partners let go of each other. For orientation: kon means the rate constant with which the complex forms. A word on the EC50 (read off the curve): it is the midpoint of the concentration-response curve. A higher EC50 (read off the curve) goes with a need for much substance.

T4 sequence (Q07011 24-255): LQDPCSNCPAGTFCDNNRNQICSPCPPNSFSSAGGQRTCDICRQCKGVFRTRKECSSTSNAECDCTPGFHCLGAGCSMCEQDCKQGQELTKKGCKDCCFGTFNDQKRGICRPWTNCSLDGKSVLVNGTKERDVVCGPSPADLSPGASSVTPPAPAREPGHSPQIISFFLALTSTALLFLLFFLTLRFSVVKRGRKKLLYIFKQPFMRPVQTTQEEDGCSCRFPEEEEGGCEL

For the first assay, the target named is T1, human BCMA on cells (CHOK1-hBCMA; H929 …). Nature of the assay: FACS, 100 nM antibody, H929 cells. On the procedure:
(§1) To evaluate the antigen binding property, the antibody candidates were analyzed for their bindings to BCMA expressed cells by FACS. Briefly, CHOK1 expressing human BCMA (CHOK1-hBCMA) or H929 expressing endogenous BCMA cells were treated with the 100 nM of indicated antibodies at 4° C. for 1 hr. CHOK1 cells were used for BCMA-negative control. After washing by FACS buffer (1% (w/v) BSA in PBS), cells were incubated with the FTTC-anti-human IgG antibody at 4° C. for 1 hr and then subjected to FACS analysis. As shown in FIGS. 2d-2f, the anti-BCMAx4-1BB antibodies bind to BCMA expressed CHOK1-hBCMA and H929 cell lines but not BCMA negative CHOK1.
In general terms: A flow cytometer gives signals particle by particle.
With B1, the “quantified FACS signal (name not given)” value is 39.9.

For B2, the “quantified FACS signal (name not given)” value came to 43.8.

On to B3, for which the “quantified FACS signal (name not given)” value was found to be 40.3.

Turning to B4, the “quantified FACS signal (name not given)” value was determined as 14.9.

As to B5, the “quantified FACS signal (name not given)” value was determined as 14.1.

For B6, the “quantified FACS signal (name not given)” value worked out at 20.2.

For B7, the “quantified FACS signal (name not given)” value came out at 17.9.

As to B8, the “quantified FACS signal (name not given)” value worked out at 17.6.

As to B9, the “quantified FACS signal (name not given)” value amounted to 19.7.

Another assay addresses T4, human 4-1BB on GloResponse NFkB-luc2/4-1BB Jurkat cells (human, UniProt Q07011 24-255). Kind of assay: cell-based or functional assay.
As to B10, the “In vitro 4-1BB activation (reporter bioassay) with H929 cells, EC50” value amounted to 0.459 nM and the “In vitro 4-1BB activation (reporter bioassay) with MM1S cells, EC50” value came out at 2.26 nM.

In the case of B11, the “In vitro 4-1BB activation (reporter bioassay) with H929 cells, EC50” value was found to be 0.629 nM and the “In vitro 4-1BB activation (reporter bioassay) with MM1S cells, EC50” value is 2.66 nM.

Take B12: the “In vitro 4-1BB activation (reporter bioassay) with H929 cells, EC50” value turned out to be 0.377 nM and the “In vitro 4-1BB activation (reporter bioassay) with MM1S cells, EC50” value turned out to be 2.41 nM.

Another assay concerns the target T4, human 4-1BB on GloResponse …. Kind of assay: cell-based or functional assay. The source holds these as a separate data set.
B2: the “4-1BB reporter bioassay (NFkB-luc2/4-1BB Jurkat) with H929 cells, EC50” value (shortened to “4-1BB reporter bioassay … with H929 cells, EC50”) was 3.16 nM.

On to B3, for which the “4-1BB reporter bioassay … with H929 cells, EC50” value is 14.3 nM.

In the case of B4, the “4-1BB reporter bioassay … with H929 cells, EC50” value was 12.1 nM.

For B6, the “4-1BB reporter bioassay … with H929 cells, EC50” value came to 10.9 nM.

As for B7, the “4-1BB reporter bioassay … with H929 cells, EC50” value is 5.35 nM.

Regarding B8, the “4-1BB reporter bioassay … with H929 cells, EC50” value was determined as 5.76 nM.

The next assay has as its target T1, human BCMA on cells (CHOK1-hBCMA; H929 …). Nature of the assay: FACS, 100 nM antibody, CHOK1-hBCMA cells. Here is the method: as §1
For B1, the “quantified FACS signal (name not given)” value was determined as 636.

As for B2, the “quantified FACS signal (name not given)” value came to 652.

Consider B3, for which the “quantified FACS signal (name not given)” value is 646.

With B4, the “quantified FACS signal (name not given)” value came to 484.

As for B5, the “quantified FACS signal (name not given)” value was determined as 477.

As to B6, the “quantified FACS signal (name not given)” value was found to be 602.

As for B7, the “quantified FACS signal (name not given)” value worked out at 579.

Turning to B8, the “quantified FACS signal (name not given)” value turned out to be 493.

On to B9, for which the “quantified FACS signal (name not given)” value was found to be 585.

In another assay the target is T2, Recombinant Human BCMA. Kind of assay: SPR, bispecific antibody on Protein A chip, antigen flowed. On the procedure: In the SPR experiment, the anti-BCMA/anti-4-1BB bispecific antibodies obtained in Example 3-5 were individually captured on flow-cells 2, 3 and 4, keeping the flow-cell 1 as reference, on a Protein A Chip on which an anti-BCMA/anti-4-1BB Bispecific antibody (5D5M4(NA)×41B01 M12 or 5A6M6(NA)×41B01 M12) had been immobilized by amine coupling. Recombinant Human BCMA or Human 4-1BB protein was flowed across the chip at concentration range from 100 nM to 6.25 nM for human BCMA or 250 nM to 15.625 nM for human 4-1BB and 0.78 nM at […] for 300 seconds, followed by a dissociation phase of 400 seconds. Regeneration was performed with 10 mM Glycine-HCl (pH 2.0).
In general terms: SPR reads the build-up and loss of mass on a sensor chip optically.
For the molecule B12, the Kd amounted to 16 nM, the koff turned out to be 0.065 s⁻¹ and the kon amounted to 4.07e+06 M⁻¹ s⁻¹.

The target in the next assay is T4, human 4-1BB on GloResponse …. Kind of assay: cell-based or functional assay. This is another data set of the same source.
For B1, the “4-1BB reporter bioassay (NFkB-luc2/4-1BB Jurkat) with CHOK1-hBCMA cells, EC50” value came out at 0.0397 nM.

Consider B2, for which the “4-1BB reporter bioassay (NFkB-luc2/4-1BB Jurkat) with CHOK1-hBCMA cells, EC50” value worked out at 0.0616 nM.

As to B3, the “4-1BB reporter bioassay (NFkB-luc2/4-1BB Jurkat) with CHOK1-hBCMA cells, EC50” value was determined as 0.0413 nM.

In the case of B4, the “4-1BB reporter bioassay (NFkB-luc2/4-1BB Jurkat) with CHOK1-hBCMA cells, EC50” value is 0.003 nM.

In the case of B5, the “4-1BB reporter bioassay (NFkB-luc2/4-1BB Jurkat) with CHOK1-hBCMA cells, EC50” value turned out to be 0.0741 nM.

For the molecule B6, the “4-1BB reporter bioassay (NFkB-luc2/4-1BB Jurkat) with CHOK1-hBCMA cells, EC50” value was found to be 0.0314 nM.

Take B7: the “4-1BB reporter bioassay (NFkB-luc2/4-1BB Jurkat) with CHOK1-hBCMA cells, EC50” value worked out at 0.0691 nM.

Turning to B8, the “4-1BB reporter bioassay (NFkB-luc2/4-1BB Jurkat) with CHOK1-hBCMA cells, EC50” value was determined as 0.0316 nM.

For B9, the “4-1BB reporter bioassay (NFkB-luc2/4-1BB Jurkat) with CHOK1-hBCMA cells, EC50” value was found to be 0.0426 nM.

The target of another assay is T3, human BCMA-Fc protein. Kind of assay: DACE (dual antigen captured ELISA): plate coated with human BCMA-Fc, bispecific antibody titrated, then human 4-1BB-His; Abs at 450 nm. A general note: ELISA stands for enzyme-linked immunosorbent assay.
Consider B10, for which the “EC50 (read off the curve)” value was ~0.5 nM.

In the case of B11, the “EC50 (read off the curve)” value was ~0.5 nM.

As for B12, the “EC50 (read off the curve)” value is ~0.4 nM.

For another assay, the target named is T5, Recombinant Human 4-1BB protein (human, UniProt Q07011 24-186).
T5 construct: also called h4-1BB; 4-1BB antigen
Kind of assay: BLI, Octet Red 96. The source says:
To explore the binding kinetics of the humanized antibody, this example performed the affinity ranking by using Octet Red 96.
For B13, the Kd was found to be 0.18 nM, the koff was 0.000119 s⁻¹ and the kon stood at 658000 M⁻¹ s⁻¹.

For the molecule B14, the Kd was found to be 1.01 nM, the koff came out at 0.000603 s⁻¹ and the kon was 595000 M⁻¹ s⁻¹.

These data come from US20230051266A1 (ABL BIO, published 2023).
